*1 amine or outer side, *2 acyl side, *3 side chain or, on linkers, in order; H or OH if unused. Bridges are numbered along the chain shown (N, C = ends). Where no end group is shown, it is not given here. Side-chain parts run from the residue outwards. The star is where a group is joined. C18 diacid = O=C(O)CCCCCCCCCCCCCCCCC(=O)*; γGlu = O=C(O)[C@H](CCC(=O)[*:2])N[*:1]; AEEA = NCCOCCOCC(=O)O
Tests used:
[1] = molecular target: CGRP receptor (calcitonin receptor-like receptor (CRLR), receptor activity modifying protein-1 (RAMP1)) (Homo sapiens, UniProt O60894+Q16602); assay: CGRP-induced cAMP accumulation in CGRP receptor expressing cells (CHO, CRE luciferase reporter); format: cell-based; settings: crude SPOT-synthesised peptides, photo-cleaved, in DMSO; CGRP-1-luc cell line
Procedure: Chinese hamster ovary (CHO) cells were stably transfected with calcitonin receptor-like receptor (CRLR), receptor activity modifying protein-1 (RAMP1) and CRE luciferase (cAMP responsive element for control of luciferase gene expression). Luciferase is a reporter-gene reporting accumulation of intracellular cAMP).
Cells were cultured in F12 media supplemented with GlutaMAX™ (Gibco cat no 31765-027), FBS (10%, Gibco 16140-071), Penicillin-streptomycin (1%, Lonza DE-17-602E), G418 (400 μg/ml, Gibco 10131-027), Blasticidine (10 μg/ml, Corning cat no 15205), Hygromycin (400 μg/ml, Calbiochem cat no 400052).
Cells were seeded in a 96 well plate (Packard #6005180), 20000 cells/well in 100 μl media on the day before experimentation. On the day of experimentation media was replaced by assay medium (Dulbecco's media w/o phenol red (Gibco cat no 11880-028) supplemented with 10% FBS (10%, Gibco 16140-071), Hepes (10 mM, Gibco cat no 15630), GlutaMAX™ (2 mM, Gibco cat no 35050), 50 μl/well.
Peptides were diluted in assay media before added to cells for stimulation, 50 μl/well.
Cells were incubated 5% CO2, 37° C. for 4 hours.
Assay medium and peptides were replaced by phosphate buffered saline (PBS, Gibco cat no 14040-091), 100 μl/well and LucLite™ (PerkinElmer, cat no 6076759), 100 μl/well were added. The plate was sealed before incubation for 30 min at room temperature (21° C.). Luciferase activity (luminescens, 7 s/well) was measured (TopCount®, NXT, Packard).
Dose-response curves were fitted by use of GraphPad Prism software and pEC50 values were calculated. Data were given as mean±SEM, n=2 and each analogue was tested twice.

[2] = molecular target: CGRP receptor: calcitonin receptor-like receptor (CRLR) with receptor activity modifying protein-1 (RAMP1), stably transfected in Chinese hamster ovary (CHO) cells together with CRE luciferase; assay: cell-based or functional assay

Chain of CGRP receptor (calcitonin receptor-like receptor (CRLR), receptor activity modifying protein-1 (RAMP1)) (Q16602 23-461, species assumed): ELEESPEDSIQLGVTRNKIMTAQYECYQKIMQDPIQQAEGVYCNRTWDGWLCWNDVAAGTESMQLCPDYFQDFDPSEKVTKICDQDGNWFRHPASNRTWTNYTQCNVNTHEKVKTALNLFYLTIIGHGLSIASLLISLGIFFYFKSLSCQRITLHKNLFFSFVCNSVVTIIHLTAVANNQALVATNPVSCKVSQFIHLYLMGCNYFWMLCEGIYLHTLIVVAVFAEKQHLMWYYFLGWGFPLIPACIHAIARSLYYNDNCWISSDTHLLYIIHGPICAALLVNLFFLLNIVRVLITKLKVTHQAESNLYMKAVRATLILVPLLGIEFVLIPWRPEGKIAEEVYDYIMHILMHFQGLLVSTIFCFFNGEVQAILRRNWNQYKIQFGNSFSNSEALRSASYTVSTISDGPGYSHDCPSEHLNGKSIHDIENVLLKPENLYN
Chain of CGRP receptor (calcitonin receptor-like receptor (CRLR), receptor activity modifying protein-1 (RAMP1)) (O60894 27-148, species assumed): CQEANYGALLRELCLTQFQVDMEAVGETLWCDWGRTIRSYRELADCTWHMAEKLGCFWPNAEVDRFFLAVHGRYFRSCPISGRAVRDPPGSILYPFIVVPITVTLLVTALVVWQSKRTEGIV

pEC50-ratio relative to human alpha-CGRP, measured by the CGRP-induced cAMP accumulation in CGRP receptor expressing cells [1]	pEC50-ratio relative to human alpha-CGRP [2]	Molecule	other results
0.15		ACDXATCVTHRLAGLLSRSGGVVKNNFVPTNVGSKAF (ACDK([AEEA-AEEA-γGlu-C18 diacid])ATCVTHRLAGLLSRSGGVVKNNFVPTNVGSKAF; disulfide 2-7; ends not checked) [Acylation Position 4, human alpha CGRP, position 4 replaced by X, the acylated L-lysine; Cys2-Cys7 disulfide]	
0.38		ACDTATCVTHRLAGLLSRSGGVVKNXFVPTNVGSKAF (ACDTATCVTHRLAGLLSRSGGVVKNK([AEEA-AEEA-γGlu-C18 diacid])FVPTNVGSKAF; disulfide 2-7; ends not checked) [Acylation Position 26, human alpha CGRP, position 26 replaced by X, the acylated L-lysine; Cys2-Cys7 disulfide]	
0.41		ACDTATCVTHRLAGLLSRSGGVVKNNFVXTNVGSKAF (ACDTATCVTHRLAGLLSRSGGVVKNNFVK([AEEA-AEEA-γGlu-C18 diacid])TNVGSKAF; disulfide 2-7; ends not checked) [Acylation Position 29, human alpha CGRP, position 29 replaced by X, the acylated L-lysine; Cys2-Cys7 disulfide]	
0.23		ACDTATCVTHRLAGLLSRSGGVVKXNFVPTNVGSKAF (ACDTATCVTHRLAGLLSRSGGVVKKNFVPTNVGSKAF; cyclised or stapled) [Acylation Position 25, human alpha CGRP, position 25 replaced by X, the acylated L-lysine; Cys2-Cys7 disulfide]	
0.62		ACDTATCVTHRLAGLLSRSGGVVKNNFXPTNVGSKAF (ACDTATCVTHRLAGLLSRSGGVVKNNFK([AEEA-AEEA-γGlu-C18 diacid])PTNVGSKAF; disulfide 2-7; ends not checked) [Acylation Position 28, human alpha CGRP, position 28 replaced by X, the C18 diacid-gamma-Glu-OEG-OEG acylated L-lysine; Cys2-Cys7 disulfide]	
0.28		ACDTATCVTHXLAGLLSRSGGVVKNNFVPTNVGSKAF (ACDTATCVTHK([AEEA-AEEA-γGlu-C18 diacid])LAGLLSRSGGVVKNNFVPTNVGSKAF; disulfide 2-7; ends not checked) [Acylation Position 11, human alpha CGRP, position 11 replaced by X, the acylated L-lysine; Cys2-Cys7 disulfide]	
0.44		ACDTATCVTHRLAGLLSRSGGVVKNNFVPTXVGSKAF (ACDTATCVTHRLAGLLSRSGGVVKNNFVPTK([AEEA-AEEA-γGlu-C18 diacid])VGSKAF; disulfide 2-7; ends not checked) [Acylation Position 31, human alpha CGRP, position 31 replaced by X, the acylated L-lysine; Cys2-Cys7 disulfide]	
		rat CGRP-beta (from UniProt P10093 89-125) (peptide)	EC50, pM (in vitro potency; CGRP-induced cAMP accumulation in CGRP receptor expressing cells, CRE luciferase) [2]: 9 pM
		SCNTATCVTHRLAGLLSRSGGVVKDNFVPTNVGSEAF (peptide, UniProt P01256 83-119, looked up, disulfide 2-7; ends not checked) [rat CGRP-alpha]	EC50, pM (in vitro potency; CGRP-induced cAMP accumulation in CGRP receptor expressing cells, CRE luciferase) [2]: 5 pM
	0.23	ACDTATCVTHRLAGLLSRSGGVVKKNFVPTNVGSKAF (position 25 (printed X) = N-ε-{2-(2-{2-[2-(2-{2-[4-carboxy-4-(17-carboxyheptadecanoylamino)butyrylamino]ethoxy}ethoxy)-acetylamino]ethoxy}ethoxy)acetyl})-L-lysine; Cys2 and Cys7 are cyclised with a disulfide bond) [human alpha-CGRP acylated at position 25]	
	0.41	ACDTATCVTHRLAGLLSRSGGVVKNNFVK([AEEA-AEEA-γGlu-C18 diacid])TNVGSKAF (disulfide 2-7; ends not checked) [human alpha-CGRP acylated at position 29]	
	0.38	ACDTATCVTHRLAGLLSRSGGVVKNK([AEEA-AEEA-γGlu-C18 diacid])FVPTNVGSKAF (disulfide 2-7; ends not checked) [human alpha-CGRP acylated at position 26]	
	0.14	ACK([AEEA-AEEA-γGlu-C18 diacid])TATCVTHRLAGLLSRSGGVVKNNFVPTNVGSKAF (disulfide 2-7; ends not checked) [human alpha-CGRP acylated at position 3]	
	0.44	ACDTATCVTHRLAGLLSRSGGVVKNNFVPTK([AEEA-AEEA-γGlu-C18 diacid])VGSKAF (disulfide 2-7; ends not checked) [human alpha-CGRP acylated at position 31]	
	0.62	ACDTATCVTHRLAGLLSRSGGVVKNNFK([AEEA-AEEA-γGlu-C18 diacid])PTNVGSKAF (disulfide 2-7; ends not checked) [human alpha-CGRP acylated at position 28]	
	0.28	ACDTATCVTHK([AEEA-AEEA-γGlu-C18 diacid])LAGLLSRSGGVVKNNFVPTNVGSKAF (disulfide 2-7; ends not checked) [human alpha-CGRP acylated at position 11]	
	0.15	ACDK([AEEA-AEEA-γGlu-C18 diacid])ATCVTHRLAGLLSRSGGVVKNNFVPTNVGSKAF (disulfide 2-7; ends not checked) [human alpha-CGRP acylated at position 4]	
